In paper PMC7316485, “Secretion of Recombinant Interleukin-22 by Engineered Lactobacillus reuteri Reduces Fatty Liver Disease in a Mouse Model of Diet-Induced Obesity” (mSphere, 2020):

Biological target: the molecule itself
Test: migration on a gel, Western blot; FLAG-tagged mIL-22 from L. reuteri grown in LDM3 at 37°C to OD600 3.5; total lysate (VPL31125) or protein precipitated from culture supernatant (VPL3778); samples prepared as in ref. 14; gel conditions not told

B1: murine interleukin-22 with C-terminal 3x FLAG tag, without signal peptide (IL-22:3X FLAG, pVPL31125) (natural protein, mouse, UniProt Q9JJY9 34-179, looked up)
chain: LPVNTRCKLEVSNFQQPYIVNRTFMLAKEASLADNNTDVRLIGEKLFRGVSAKDQCYLMKQVLNFTLEDVLLPQSDRFQPYMQEVVPFLTKLSNQLSSCHISGDDQNIQKNVRRLKETVKKLGESGEIKAIGELDLLFMSLRNACV
notes: also called mIL-22; source: L. reuteri VPL31125 (accumulates mIL-22 intracellularly), total lysate; not shown: 3x FLAG, C-terminal, kept
  stoichiometry N: 4

B2: murine interleukin-22 with C-terminal 3x FLAG tag, cleaved from the fusion with a Lactobacillus reuteri signal peptide (SP:IL-22:3X FLAG, pVPL3776) (natural protein, mouse, UniProt Q9JJY9 34-179, looked up)
chain: LPVNTRCKLEVSNFQQPYIVNRTFMLAKEASLADNNTDVRLIGEKLFRGVSAKDQCYLMKQVLNFTLEDVLLPQSDRFQPYMQEVVPFLTKLSNQLSSCHISGDDQNIQKNVRRLKETVKKLGESGEIKAIGELDLLFMSLRNACV
notes: the rest kept the signal peptide; also called mIL-22; mature mIL-22; source: L. reuteri VPL3778 (engineered to secrete mIL-22), protein precipitated from culture supernatant; not shown: 3x FLAG, C-terminal, kept
  stoichiometry N: 4
